Source: article PMC4339880, “Enzymatic properties and subtle differences in the substrate specificity of phylogenetically distinct invertebrate N-glycan processing hexosaminidases” (Glycobiology, 2014)

T1: DmFDL (Drosophila melanogaster FDL) (Drosophila melanogaster, UniProt Q8WSF3, G400V)
T1 construct: soluble form without transmembrane domain, alpha-factor secretion signal, N-terminal His-tag, P. pastoris X-33 (codon-optimized; also made in Hi5 insect cells), Ni-NTA purified
T1 sequence (Q8WSF3 37-660 G400V limits assumed): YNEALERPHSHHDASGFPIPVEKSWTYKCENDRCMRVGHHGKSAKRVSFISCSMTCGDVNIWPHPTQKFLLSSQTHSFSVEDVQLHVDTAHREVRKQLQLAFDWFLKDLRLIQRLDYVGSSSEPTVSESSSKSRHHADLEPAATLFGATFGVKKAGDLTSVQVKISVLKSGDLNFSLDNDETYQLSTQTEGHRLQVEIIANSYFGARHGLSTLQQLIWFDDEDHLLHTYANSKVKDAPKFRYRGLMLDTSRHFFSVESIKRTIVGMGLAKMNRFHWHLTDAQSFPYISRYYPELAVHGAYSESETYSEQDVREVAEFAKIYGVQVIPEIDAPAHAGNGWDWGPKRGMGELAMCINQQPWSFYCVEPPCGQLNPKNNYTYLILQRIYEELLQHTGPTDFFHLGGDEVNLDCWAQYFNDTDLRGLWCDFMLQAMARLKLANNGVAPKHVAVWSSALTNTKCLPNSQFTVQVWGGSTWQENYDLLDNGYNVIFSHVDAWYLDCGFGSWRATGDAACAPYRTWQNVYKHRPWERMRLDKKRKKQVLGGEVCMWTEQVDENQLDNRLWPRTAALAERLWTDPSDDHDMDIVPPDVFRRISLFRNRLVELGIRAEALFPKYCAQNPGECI

T2: DmFDL (Drosophila melanogaster FDL) (Drosophila melanogaster, UniProt Q8WSF3, W506A)
T2 construct: soluble form without transmembrane domain, alpha-factor secretion signal, N-terminal His-tag, P. pastoris X-33 (codon-optimized; also made in Hi5 insect cells), Ni-NTA purified
T2 sequence (Q8WSF3 37-660 W506A limits assumed): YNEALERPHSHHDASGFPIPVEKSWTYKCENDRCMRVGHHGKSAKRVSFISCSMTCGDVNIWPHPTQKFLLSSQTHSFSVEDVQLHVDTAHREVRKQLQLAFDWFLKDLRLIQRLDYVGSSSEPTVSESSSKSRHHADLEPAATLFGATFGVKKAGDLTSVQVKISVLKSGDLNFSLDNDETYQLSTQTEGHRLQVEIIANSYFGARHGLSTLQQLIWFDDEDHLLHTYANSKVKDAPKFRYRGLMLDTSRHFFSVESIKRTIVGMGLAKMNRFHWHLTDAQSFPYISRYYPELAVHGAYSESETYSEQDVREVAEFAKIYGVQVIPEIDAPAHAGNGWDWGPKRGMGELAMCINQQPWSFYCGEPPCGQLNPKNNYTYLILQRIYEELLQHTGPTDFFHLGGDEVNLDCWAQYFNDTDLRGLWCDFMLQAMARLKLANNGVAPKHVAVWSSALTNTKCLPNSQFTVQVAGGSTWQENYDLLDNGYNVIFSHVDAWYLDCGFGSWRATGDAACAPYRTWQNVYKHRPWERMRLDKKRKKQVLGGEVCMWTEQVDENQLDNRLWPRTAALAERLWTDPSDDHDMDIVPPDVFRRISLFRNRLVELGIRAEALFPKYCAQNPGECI

T3: CeHEX-4 (Caenorhabditis HEX-4) (Caenorhabditis elegans, UniProt Q8WTK2)
T3 sequence (Q8WTK2 25-491): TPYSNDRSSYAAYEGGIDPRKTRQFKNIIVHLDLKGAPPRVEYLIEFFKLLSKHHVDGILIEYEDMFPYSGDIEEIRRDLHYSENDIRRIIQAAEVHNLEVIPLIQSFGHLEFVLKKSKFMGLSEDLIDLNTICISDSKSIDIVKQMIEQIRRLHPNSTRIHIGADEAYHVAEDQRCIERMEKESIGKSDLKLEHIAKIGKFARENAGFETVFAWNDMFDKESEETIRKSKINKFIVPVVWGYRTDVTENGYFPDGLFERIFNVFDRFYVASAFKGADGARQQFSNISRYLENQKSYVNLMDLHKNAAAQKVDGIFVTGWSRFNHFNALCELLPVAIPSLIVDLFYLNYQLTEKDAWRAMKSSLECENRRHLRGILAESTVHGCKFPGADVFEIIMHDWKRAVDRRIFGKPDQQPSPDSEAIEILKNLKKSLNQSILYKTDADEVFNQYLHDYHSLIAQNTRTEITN

B1: DmFDL (Drosophila melanogaster FDL) (Drosophila melanogaster) (protein)
chain: YNEALERPHSHHDASGFPIPVEKSWTYKCENDRCMRVGHHGKSAKRVSFISCSMTCGDVNIWPHPTQKFLLSSQTHSFSVEDVQLHVDTAHREVRKQLQLAFDWFLKDLRLIQRLDYVGSSSEPTVSESSSKSRHHADLEPAATLFGATFGVKKAGDLTSVQVKISVLKSGDLNFSLDNDETYQLSTQTEGHRLQVEIIANSYFGARHGLSTLQQLIWFDDEDHLLHTYANSKVKDAPKFRYRGLMLDTSRHFFSVESIKRTIVGMGLAKMNRFHWHLTDAQSFPYISRYYPELAVHGAYSESETYSEQDVREVAEFAKIYGVQVIPEIDAPAHAGNGWDWGPKRGMGELAMCINQQPWSFYCGEPPCGQLNPKNNYTYLILQRIYEELLQHTGPTDFFHLGGDEVNLDCWAQYFNDTDLRGLWCDFMLQAMARLKLANNGVAPKHVAVWSSALTNTKCLPNSQFTVQVWGGSTWQENYDLLDNGYNVIFSHVDAWYLDCGFGSWRATGDAACAPYRTWQNVYKHRPWERMRLDKKRKKQVLGGEVCMWTEQVDENQLDNRLWPRTAALAERLWTDPSDDHDMDIVPPDVFRRISLFRNRLVELGIRAEALFPKYCAQNPGECI
notes: soluble form without transmembrane domain, alpha-factor secretion signal, N-terminal His-tag, P. pastoris X-33 (codon-optimized; also made in Hi5 insect cells), Ni-NTA purified
B2: CeHEX-2 (C. elegans HEX-2) (Caenorhabditis elegans) (protein)
chain: SYPKGGISQRALDSMQKEPQTPVLVQKRENFEESIDVAVEQESKKENPFVNQQASTENAKPITQEVKIERPSRDNEFYKNVVIHFDLKGAPPKVDYFLDLLRLIAKGGATGILLEWEDMFPWTGKLEQFKNTDAYSESDVDMILSEATKLKLDVIPLVQTFGHLEWILKYEEMRKYRENDAYPQVLCLGNEEGVEFVREMIRQVAKKHAKYGIPFFHIGADEAFEFGVCQESLDWIKKNGKNGRKQLLALAHLKAIAEFAKQQTGDSTQILAWHDMLKDFDSRLIKNLELGQIIQPVVWDYSENIITLNDYIFSALAENFPTMWASSAYKGANYPSASTSEVRHYETNNRNWIRTKQNQERKFKNGFQGIIVTGWQRYDHLAGLCETLPIGTASMMLQMQIALNAPALDLEGTRQKAATLLECQGFNVDGVKVVSNQCKYRGFQTYLIYQSEVPNLFARIDSELSKNHHLMGWANRYNRKYNISQNWYHREMLPFVQQLVGQYDRVESDLRASMKDLYFENTIDEFIYENLGEMSEKLHGYLEEIQRLDKLRAWPKRHFPIKK
notes: soluble form without transmembrane domain, alpha-factor secretion signal, C-terminal His-tag, P. pastoris X-33, Ni-NTA purified
B3: CeHEX-3 (C. elegans HEX-3) (Caenorhabditis elegans) (protein)
chain: TSQFKSTTTHARFVPEPSDPRLHPNSPLQAPKAQEPAAAETTKKPSRQPHHTTAKPRTENVEINGEKYPKLSPDGNLIPQRRIVHLDLKGAPYKPEFFTELFAFFNRIQATGILLEWEDMFPFKGRLRGAINKNAYSMETVEHILQEAQKHHLQIIPLVQTMGHLEWILKLEEFAHLREDTRFPQVICFSDENAWELIKEMIEEVANVHKKYGMSYFHIGADEAFQIGICNASITQIKKEFTRERLMLWHIARTARFVKEKYPETQVLAWHDMLASAMESDIEDYKLTELLQPVLWNYAEDLDIYLPRSTWMIVRNFRNVWGSSAWKGADGPARYSTNANHYLKNHESWIKQFTMVYKDFEVVEGLIMAGWSRYDHFAVLAETIPVALPTLAMSMETMIEGRPLAGNYPVTSELLQCTPPLDLGFTATGCKFPGNRIYELINEMYQKQMQLRTYRLDDYELNGWLSRVADDYSVSSHWYIDKIENMIEMHATPLEQLADDLRFEMERIFFKDTVDEFIFTYLGEDLEWFNRKRETIRKVSTSQTFPKRPFIESAKSEKTCT
B4: CeHEX-4 (Caenorhabditis HEX-4) (Caenorhabditis elegans) (protein)
chain: TPYSNDRSSYAAYEGGIDPRKTRQFKNIIVHLDLKGAPPRVEYLIEFFKLLSKHHVDGILIEYEDMFPYSGDIEEIRRDLHYSENDIRRIIQAAEVHNLEVIPLIQSFGHLEFVLKKSKFMGLSEDLIDLNTICISDSKSIDIVKQMIEQIRRLHPNSTRIHIGADEAYHVAEDQRCIERMEKESIGKSDLKLEHIAKIGKFARENAGFETVFAWNDMFDKESEETIRKSKINKFIVPVVWGYRTDVTENGYFPDGLFERIFNVFDRFYVASAFKGADGARQQFSNISRYLENQKSYVNLMDLHKNAAAQKVDGIFVTGWSRFNHFNALCELLPVAIPSLIVDLFYLNYQLTEKDAWRAMKSSLECENRRHLRGILAESTVHGCKFPGADVFEIIMHDWKRAVDRRIFGKPDQQPSPDSEAIEILKNLKKSLNQSILYKTDADEVFNQYLHDYHSLIAQNTRTEITN

Assays:
[1] = molecular target: T1, DmFDL (Drosophila melanogaster FDL); assay: p-nitrophenol release, A405; format: biochemical; settings: 5 mM substrate, McIlvaine buffer, 30°C
[2] = molecular target: T2, DmFDL (Drosophila melanogaster FDL); assay: p-nitrophenol release, A405; format: biochemical; settings: 5 mM substrate, McIlvaine buffer, 30°C
[3] = molecular target: T3, CeHEX-4 (Caenorhabditis HEX-4); assay: inhibition of pNP-β-GalNAc hydrolysis (A405), Cheng-Prusoff from IC50; Dixon plot; format: biochemical; settings: substrate pNP-β-GalNAc, McIlvaine buffer, 37°C
[4] = substrate: CC(=O)N[C@H]1[C@H](Oc2ccc([N+](=O)[O-])cc2)O[C@H](CO)[C@H](O)[C@@H]1O; assay: purified protein, by the assay type; parameters: p-nitrophenol release from pNP-glycoside substrate, A405, non-linear Michaelis-Menten fit
Protocol: (§1) Determination of Km, specific activity, kcat and Ki Standard enzymatic activity assays were performed using pNP-β-GlcNAc (Sigma, USA) and pNP-β-GalNAc (Sigma, USA) as a substrate. The assays were performed at a substrate concentration of 5 mM in McIlvaine buffer, pH 4.0–6.0 at 30°C for Drosophila FDL and at 37°C for the other hexosaminidases. The total reaction volume was 40 µL and incubation time was 2 h. All purified enzymes were tested for additional activities using a range of p-nitrophenyl-sugars as substrates at a concentration of 5 mM for 4 h. After the addition of 200 µL of 0.4 M glycine/NaOH pH 10.4, A405nm was determined on a Tecan Infinite M200 microtiter plate reader (Tecan, Austria). All enzymes were appropriately diluted for measurements in order to measure reactions within the linear range of the assay. Enzyme units are given in µmol product (nitrophenol) per minute.

[5] = substrate: CC(=O)N[C@H]1[C@H](Oc2ccc([N+](=O)[O-])cc2)O[C@H](CO)[C@@H](O)[C@@H]1O; assay: purified protein, by the assay type; parameters: p-nitrophenol release from pNP-glycoside substrate, A405, non-linear Michaelis-Menten fit
Protocol: as §1

[6] = substrate: CC(=O)N[C@H]1[C@H](Oc2ccc([N+](=O)[O-])cc2)O[C@H](CO)[C@H](O)[C@@H]1O; assay: p-nitrophenol release, A405, non-linear fit; format: biochemical, Caenorhabditis elegans; settings: McIlvaine buffer at optimal pH (5-6), 37°C
[7] = substrate: CC(=O)N[C@H]1[C@H](Oc2ccc([N+](=O)[O-])cc2)O[C@H](CO)[C@@H](O)[C@@H]1O; assay: p-nitrophenol release, A405, non-linear fit; format: biochemical, Caenorhabditis elegans; settings: McIlvaine buffer at optimal pH (5-6), 37°C

Molecule | Km [6] [µM] | Km [7] [µM] | kcat [7] [s⁻¹] | kcat/Km [7] [M⁻¹ s⁻¹] | kcat [6] [s⁻¹] | kcat/Km [6] [M⁻¹ s⁻¹] | further results
CC(=O)N[C@H]1[C@H](Oc2ccc([N+](=O)[O-])cc2)O[C@H](CO)[C@H](O)[C@@H]1O [pNP-β-GalNAc, p-nitrophenyl-β-D-N-acetylgalactosaminide] |  |  |  |  |  |  | p-nitrophenol release, A405 [1]: the Drosophila G400V mutant showed increased; p-nitrophenol release, A405 [2]: the W506A mutant showed decreased activity toward pNP-β-GalNAc
CC(=O)N[C@H]1C(O)O[C@H](CO)[C@H](O)[C@@H]1O (stereo partly shown) [GalNAc, N-acetylgalactosamine] |  |  |  |  |  |  | Ki [3]: 1000 µM
B1 |  |  |  |  |  |  | Km [4]: 520 ± 30 µM; kcat [4]: 5.6 ± 0.1 s⁻¹; kcat/Km [4]: 11900 ± 800 M⁻¹ s⁻¹; Km [5]: 1400 ± 80 µM; kcat [5]: 48.2 ± 2.2 s⁻¹; kcat/Km [5]: 42000 ± 1800 M⁻¹ s⁻¹
B2 | 410 ± 80 | 230 ± 150 | 8.6 ± 0.8 | 22000 ± 3600 |  |  | 
B3 | 590 ± 140 | 970 ± 700 | 0.1 | 200 ± 100 | 5.2 ± 1 | 7800 ± 3000 | 
B4 | 590 ± 50 | 3470 ± 350 | 12.6 ± 1.4 | 2200 ± 100 | 13.8 ± 1.4 | 19500 ± 2300 | 
